Patent US20230312724A1 (KADMON, published 2023)
Like-named read-outs stand apart in the source and are kept apart here.

T1: human B7-H4 expressed on cells (human, UniProt Q7Z7D3 25-282)
T1 construct: Transfected CHO cells or tumor cell lines that carry hB7-H4; also called cellular hB7-H4
T1 sequence: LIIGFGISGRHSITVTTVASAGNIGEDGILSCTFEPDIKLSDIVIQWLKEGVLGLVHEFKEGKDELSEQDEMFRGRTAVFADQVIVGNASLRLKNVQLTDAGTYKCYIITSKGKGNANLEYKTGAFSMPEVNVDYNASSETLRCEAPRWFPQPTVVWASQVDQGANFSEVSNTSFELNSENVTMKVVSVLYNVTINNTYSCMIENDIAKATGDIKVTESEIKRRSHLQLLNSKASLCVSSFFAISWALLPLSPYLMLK

T2: hB7-H4 (soluble human B7-H4, construct not named) (human, UniProt Q7Z7D3 25-259, limits assumed)
T2 construct: also called soluble hB7-H4
T2 sequence: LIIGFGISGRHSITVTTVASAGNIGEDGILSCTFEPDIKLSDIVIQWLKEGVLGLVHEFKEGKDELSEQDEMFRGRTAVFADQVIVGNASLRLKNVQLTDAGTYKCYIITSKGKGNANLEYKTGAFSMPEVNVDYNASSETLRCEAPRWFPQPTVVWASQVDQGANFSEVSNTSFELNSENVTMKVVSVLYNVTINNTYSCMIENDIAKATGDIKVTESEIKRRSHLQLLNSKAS

T3: mB7-H4 (soluble mouse B7-H4, construct not named) (mouse, UniProt Q7TSP5 25-257, limits assumed)
T3 sequence: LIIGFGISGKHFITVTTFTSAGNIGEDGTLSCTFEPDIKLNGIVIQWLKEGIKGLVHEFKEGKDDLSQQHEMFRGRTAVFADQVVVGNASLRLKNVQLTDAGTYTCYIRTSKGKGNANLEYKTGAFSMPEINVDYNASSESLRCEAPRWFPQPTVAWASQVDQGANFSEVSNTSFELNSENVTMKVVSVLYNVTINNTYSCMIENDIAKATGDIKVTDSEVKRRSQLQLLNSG

T4: mouse B7-H4 expressed on cells (mouse, UniProt Q7TSP5 25-257)
T4 construct: also called cellular mB7-H4; mB7-H4/CT26
T4 sequence: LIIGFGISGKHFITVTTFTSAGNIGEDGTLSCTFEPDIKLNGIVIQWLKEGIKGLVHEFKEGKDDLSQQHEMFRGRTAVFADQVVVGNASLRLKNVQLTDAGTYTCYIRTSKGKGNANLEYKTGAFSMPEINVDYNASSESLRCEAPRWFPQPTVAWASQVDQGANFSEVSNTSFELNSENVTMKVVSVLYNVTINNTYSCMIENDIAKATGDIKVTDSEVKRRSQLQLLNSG

T5: mouse B7-H4-his (mouse, UniProt Q7TSP5 25-257)
T5 construct: also called mB7-H4-his; mB7-H4-His; not shown: his tag
T5 sequence: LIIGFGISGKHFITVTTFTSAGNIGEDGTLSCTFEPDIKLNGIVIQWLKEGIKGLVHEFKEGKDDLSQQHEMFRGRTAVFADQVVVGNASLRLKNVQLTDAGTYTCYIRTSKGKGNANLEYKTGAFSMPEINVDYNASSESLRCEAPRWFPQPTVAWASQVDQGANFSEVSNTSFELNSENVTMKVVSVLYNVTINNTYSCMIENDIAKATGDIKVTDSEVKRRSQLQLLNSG


Columns and labels:
[1] = target: T1, human B7-H4 expressed on cells; assay: flow cytometry, SK-BR-3 cells
[2] = target: T2, hB7-H4 (soluble human B7-H4, construct …); assay: ELISA, hB7-H4
Experimental: (§1) About 1-2 μg/ml of human or mouse B7-H4-Fc (or his-tagged) was immobilized on ELISA plates (Immuno 2HB, Thermo scientific, cat #3455) at 4° C. overnight. After blocking the plates with 3% PBS+milk, serial diluted antibodies were added to the blocked plates and incubated at RT for 1-1.5 h. After washing the plates with PBS-T (0.05%), horse radish peroxidase (HRP)-conjugated antibody targeting the hFab was added to the plate. Signals were developed by adding 3,3′,5,5′-Tetramethylbenzidine (TMB (followed 1N of H₂SO₄ to stop the reaction. The OD at 450 nm was read by ELISA plate reader (Infinite M1000 from TECAN). GraphPad from Prism was used to plot OD450 vs. antibody concentration curve and to calculate the EC50 values.

[3] = target: T6, IgV domain of mouse B7-H4-Fc (mouse; human); assay: ELISA, coated mB7-H4 IgV domain
T6 construct: also called mB7-H4 IgV domain

[4] = target: T7, IgV domain of human B7-H4-Fc (human); assay: ELISA, coated hB7-H4 IgV domain
T7 construct: also called hB7-H4 IgV domain

[5] = target: T2, hB7-H4 (soluble human B7-H4, construct …); assay: SPR (Biacore)
[6] = target: T8, IgC domain of human B7-H4-Fc (human); assay: ELISA, coated hB7-H4 IgC domain
T8 construct: also called hB7-H4 IgC domain

[7] = target: T3, mB7-H4 (soluble mouse B7-H4, construct …); assay: ELISA, mB7-H4
Experimental: as §1

[8] = target: T8, IgC domain of human B7-H4-Fc; assay: ELISA, coated hB7-H4 IgC domain; remark: listed apart in the source
Experimental: ELISA experiments were performed to determine binding to hB7-H4-Fc (FIG. 5A), hB7-H4-his (FIG. 5B), mB7-H4-Fc domain (FIG. 5C), hB7-H4 IgV domain (FIG. 5D), and hB7-H4 IgC domain (FIG. 5E). Flow cytrometry experiments were performed to determine binding to CHO cells expressing hB7-H4 (FIG. 5F) or mB7-H4 (FIG. 5G). […] A cross-reactive IgV binding antibody and an IgC binding antibody were used as controls.
as §1

[9] = target: T4, mouse B7-H4 expressed on cells; assay: flow cytometry, mB7-H4/CT26 cells
[10] = target: T3, mB7-H4 (soluble mouse B7-H4, construct …); assay: SPR (Biacore); values equal to Table 11
[11] = target: T9, mouse B7-H4-Fc (mouse; human); assay: ELISA, coated mB7-H4-Fc
T9 construct: also called mB7-H4-Fc; mB7-H4-hFc
Procedure, shortened: (§2)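 Antibody titrations were applied for 1-1.5 h at RT to wells precoated (4° C overnight) with roughly 1-2 μg/ml human or mouse B7-H4-Fc or his-tagged protein, then blocked with 3% PBS+milk. Detection used HRP anti-hFab and TMB at OD450; EC50 from the curve.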

[12] = target: T4, mouse B7-H4 expressed on cells; assay: flow cytometry, CHO cells expressing mB7-H4
[13] = target: T3, mB7-H4 (soluble mouse B7-H4, construct …); assay: ELISA and SPR (Biacore)
Experimental: as §1
Surface plasmon resonance experiments were performed using a Biacore T200 instrument equipped with CM5 sensor chips. The system was equilibrated in running buffer HBS-EP pH 7.4. The ligands were immobilized using amine-coupling chemistry. The surfaces of flow cells one through four were activated for 5 min using an amine coupling kit at a flow rate of […]. The ligands (human B7-H4-Fc, human B7-H4-hism and mouse B7-H4-Fc; at a concentration of 5 μg/ml in 10 mM sodium acetate, pH 5.0) were immobilized at a density of 50-100 RU on flow cell 2, 3, 4 respectively. Flow cell 1 was left blank to serve as a reference surface. All flow cell surfaces were blocked with a 5 min injection of 1 M ethanolamine, pH 8.0. To collect kinetic binding data, the respective analyte (diluted in 1×HBS-EP buffer, pH 7.4) was injected over the four flow cells at concentrations of 100 nM to 0.1 nM at a flow rate of […] and at a temperature of 25° C. The protein complex was allowed to associate and dissociate for 180 seconds and 1000 or 1200 seconds, respectively. The surfaces were regenerated with a 30 second injection of 1.5 M NaCl/0.05 M NaOH. The data were fit to a simple 1:1 interaction model using the Langmuir fit option available within the Biaevaluaton software

[14] = target: T10, IgC domain of mouse B7-H4-Fc (mouse; human); assay: ELISA, coated mB7-H4 IgC domain (title on the sheet: IgC domain of mB7H4)
T10 construct: also called mB7-H4 IgC domain
Experimental: as §1

[15] = target: T2, hB7-H4 (soluble human B7-H4, construct …); assay: SPR (Biacore); remark: listed apart in the source
Procedure, shortened: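 Ligands (human B7-H4-Fc, human B7-H4-his, mouse B7-H4-Fc) were amine-coupled to CM5 chips at 50-100 RU. Analyte was injected at 100 nM to 0.1 nM in HBS-EP, pH 7.4, at 25 °C, with 180 s association and 1000 or 1200 s dissociation. Kinetics were fitted to a 1:1 Langmuir model.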

[16] = target: T5, mouse B7-H4-his; assay: ELISA, coated mB7-H4-his
Experimental: as §1

[17] = target: T9, mouse B7-H4-Fc; assay: ELISA, coated mB7-H4-Fc (title on the sheet: Binding to mB7-H7-Fc)
Experimental: as §1

[18] = target: T8, IgC domain of human B7-H4-Fc; assay: ELISA, coated hB7-H4 IgC domain (title on the sheet: IgC domain of hB7H4)
Experimental: as §1

[19] = target: T2, hB7-H4 (soluble human B7-H4, construct …); assay: ELISA, hB7-H4; remark: listed apart in the source
Procedure, shortened: as §2

[20] = target: T6, IgV domain of mouse B7-H4-Fc; assay: ELISA, coated mB7-H4 IgV domain; remark: listed apart in the source
Procedure, shortened: as §2

[21] = target: T1, human B7-H4 expressed on cells; assay: flow cytometry, SK-BR-3 cells; remark: listed apart in the source
Procedure, shortened: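 Binding titrations: test proteins in serial dilution incubated on cells for 1 h at 4 °C in ice-cold FACS buffer. Detection with secondary antibody diluted 1:200.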

T8 sequence (chain, as listed by the source): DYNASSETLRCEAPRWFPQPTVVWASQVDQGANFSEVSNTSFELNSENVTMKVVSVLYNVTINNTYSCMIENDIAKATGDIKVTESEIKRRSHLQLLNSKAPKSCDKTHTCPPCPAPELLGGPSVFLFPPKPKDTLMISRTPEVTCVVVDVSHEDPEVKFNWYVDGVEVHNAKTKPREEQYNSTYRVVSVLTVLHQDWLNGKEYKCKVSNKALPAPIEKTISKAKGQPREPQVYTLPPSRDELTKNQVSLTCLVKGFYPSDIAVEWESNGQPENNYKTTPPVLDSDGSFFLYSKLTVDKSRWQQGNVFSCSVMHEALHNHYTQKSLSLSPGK
T6 sequence (chain, as listed by the source): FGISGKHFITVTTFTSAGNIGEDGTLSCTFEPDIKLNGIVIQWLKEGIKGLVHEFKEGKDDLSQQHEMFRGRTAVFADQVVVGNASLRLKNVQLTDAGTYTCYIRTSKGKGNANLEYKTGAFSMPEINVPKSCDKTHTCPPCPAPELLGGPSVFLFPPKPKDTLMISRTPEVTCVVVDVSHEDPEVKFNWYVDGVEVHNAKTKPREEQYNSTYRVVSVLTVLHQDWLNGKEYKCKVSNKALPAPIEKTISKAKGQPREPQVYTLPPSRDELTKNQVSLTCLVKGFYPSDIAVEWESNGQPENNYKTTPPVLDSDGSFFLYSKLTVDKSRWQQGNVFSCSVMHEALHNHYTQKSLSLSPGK
T9 sequence (chain, as listed by the source): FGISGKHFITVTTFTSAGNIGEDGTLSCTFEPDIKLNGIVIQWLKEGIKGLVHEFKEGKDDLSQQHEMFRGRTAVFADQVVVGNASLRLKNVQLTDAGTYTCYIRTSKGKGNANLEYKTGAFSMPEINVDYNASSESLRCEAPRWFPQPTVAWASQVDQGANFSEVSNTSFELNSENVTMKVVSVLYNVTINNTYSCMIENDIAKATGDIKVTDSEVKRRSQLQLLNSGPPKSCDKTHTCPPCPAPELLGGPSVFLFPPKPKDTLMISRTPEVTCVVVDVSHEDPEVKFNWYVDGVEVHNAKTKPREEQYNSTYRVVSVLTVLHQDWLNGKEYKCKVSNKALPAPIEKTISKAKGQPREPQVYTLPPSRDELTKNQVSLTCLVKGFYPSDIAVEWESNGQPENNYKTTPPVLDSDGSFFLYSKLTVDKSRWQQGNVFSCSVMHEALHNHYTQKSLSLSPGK
T10 sequence (chain, as listed by the source): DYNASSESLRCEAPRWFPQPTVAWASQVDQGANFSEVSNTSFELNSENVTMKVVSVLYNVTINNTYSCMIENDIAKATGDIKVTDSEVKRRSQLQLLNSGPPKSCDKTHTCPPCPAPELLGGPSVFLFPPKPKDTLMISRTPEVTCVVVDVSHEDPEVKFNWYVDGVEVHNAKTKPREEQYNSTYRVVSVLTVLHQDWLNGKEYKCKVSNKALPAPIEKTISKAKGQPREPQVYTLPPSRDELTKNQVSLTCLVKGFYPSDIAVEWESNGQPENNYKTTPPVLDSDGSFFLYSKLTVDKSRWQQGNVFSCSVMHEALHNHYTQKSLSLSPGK
T7 sequence (chain, as listed by the source): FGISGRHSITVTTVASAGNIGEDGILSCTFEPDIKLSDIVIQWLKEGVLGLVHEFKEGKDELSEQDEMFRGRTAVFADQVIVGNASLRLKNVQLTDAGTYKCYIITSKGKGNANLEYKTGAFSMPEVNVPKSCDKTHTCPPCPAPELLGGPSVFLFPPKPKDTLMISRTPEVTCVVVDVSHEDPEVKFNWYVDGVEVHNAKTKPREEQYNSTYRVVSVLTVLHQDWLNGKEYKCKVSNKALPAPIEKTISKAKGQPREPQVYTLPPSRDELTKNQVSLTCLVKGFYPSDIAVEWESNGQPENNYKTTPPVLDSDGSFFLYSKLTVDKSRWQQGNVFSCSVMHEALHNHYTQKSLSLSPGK

binding result [12]	binding result [13]	Kd [15]	EC50 [19]	EC50 [21]	Binder	binding result [14]	binding result [16]	binding result [17]	binding result [18]	binding result [20]	other results
–	–	–	–	–	Control antibody 2 (antibody 6H3 described in U.S. Pat. No. 9,574,000) (antibody, V domains shown, also called (+) control Ab2; Ab2) VH: EVQLQQSGPVLVKPGTSVKMSCKASGYTFTDYYMNWVKQSHGKSLEWIGVINPYNGDTTYNQKFKGKATLTVDKSSSTAYMEVNSLTFEDSAVYYCARYPESTYWGQGTLVTVSA VL: DVVMTQTPLSLPVSLGDQASISCRSSQSLVHINGNTYLHWYLQKPGQSPKVLIYKVSNRFSGVPDRFSGSGSGTDFTLKISRVEAEDLGVYFCSQSTHVPLTFGAGTKLELK	–	–	–	–	–	EC50 [1]: 3.37 nM; EC50 [2]: 0.222 nM; binding result [3]: no binding (tested: log 1 nM (10 nM)); binding result [4]: no binding (tested: log 1 nM (10 nM)); Kd [5]: 0.626 nM; EC50 (read off the curve) [6]: ~0.2 nM; EC50 [7]: 0.289 nM; EC50 (read off the curve) [8]: ~0.01 µg/mL; EC50 [9]: 18.4 nM; Kd [10]: 0.626 nM; binding result [11]: binds
no binding (tested: log 2 nM (100 nM))	no binding	0.317 nM	0.041 nM	52.1 nM	1D3/45A2 (antibody, human IgG1, V domains shown, 1D3 VH with 45A2 VL) VH: EVQLLESGGGLVQPGGSLRLSCAASGFTFNTHAMHWVRQAPGKGLEWVSAISGSGGSTYYADSVKGRFTISRDISKNTLYLQMNSLRAEDTAVYYCARLLGRFGEYGMDVWGQGTTVTVSS VL: DIQMTQSPSSLSASVGDRVTITCRASQNIYTWLAWYQQKPGKAPKLLIYDATNLPTGVPSRFSGSGSGTDFTLTISSLQPEDFATYYCQQSYSTRWTFGGGTKVEIK	no binding (tested: axis value -8 (labelled log nM))	no binding (tested: axis value -8 (labelled log nM))	no binding (tested: axis value -8 (log scale labelled nM))	no binding (tested: axis value -8 (labelled log nM))	no binding (tested: axis value -8 (labelled log nM))	–
no binding (tested: log 2 nM (100 nM))	no binding	0.209 nM	0.078 nM	36 nM	1D3/47B2 (antibody, human IgG1, V domains shown, 1D3 VH with 47B2 VL) VH: EVQLLESGGGLVQPGGSLRLSCAASGFTFNTHAMHWVRQAPGKGLEWVSAISGSGGSTYYADSVKGRFTISRDISKNTLYLQMNSLRAEDTAVYYCARLLGRFGEYGMDVWGQGTTVTVSS VL: DIQMTQSPSSLSASVGDRVTITCRASQTVYTWLAWYQQKPGKAPKLLIYDATNLATGVPSRFSGSGSGTDFTLTISSLQPEDFATYYCQQSYSTSWTFGGGTKVEIK	no binding (tested: axis value -8 (labelled log nM))	no binding (tested: axis value -8 (labelled log nM))	no binding (tested: axis value -8 (log scale labelled nM))	no binding (tested: axis value -8 (labelled log nM))	no binding (tested: axis value -8 (labelled log nM))	–
